# Test: yeast display, Sf9 membrane polyspecificity reagent, FACS + sequencing; frameworks hold sequencing errors
# In short: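 After 36–48 hours of galactose induction, yeast (Saccharomyces cerevisiae BJ5465) displaying a synthetic nanobody library were stained at 4 °C for 1 hour with 10% biotinylated, detergent-solubilized Sf9 membrane reagent. Streptavidin microbeads enriched the stained cells before FACS sorting into low and high (top ~1%) gates on anti-HA and streptavidin fluorescence. Each clone's polyreactivity label reflects its gate of origin.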
row,Sequence,polyreactivity (PSR sort gate)
1,QVQLVESGGGLVQAGGSLRLSCAASGRTFYTYVMGWYRQAPGKEREFVAAITYSGGSTYYADSVKGRFTISRDNAKNTVYLQMNSLKPEDTAVYYCNDEWTYSEWYGQYLEFDYWGQGTQVTVSS,high polyreactivity
2,QVQLVESGGGLVQAGGSLRLSCAASGRTFYVKSMGWYRQAPGKERELVAGISFSDGSTYYADSVKGRFTISRDNAKNTVYLQMNSLKPEDTAVYYCATVGAFDIYYGYGYWGQGTQVTVSS,low polyreactivity
3,QVQLVESGGGLVQAGGSLRLSCAASGRTFYVNAMGWSRHAPGIERELVAGISFSDGSTYYADSVKWRFTISRDNAKSTVYLQMNSLKPEDTAVYYCATVGALDIYYGYGYWGQGTQVTVSS,low polyreactivity
4,QVQLVESGGGLVQAGGSLRLSCAASGRTFYVSAMGWYRQAPGKERELVAAISWSGGSTYYADSVKGRFTISRDNAKNTVYLQMNSLKPEDTAVYYCAAQTYQRHVVAYDYWGQGTQVTVSS,low polyreactivity
5,QVQLVESGGGLVQAGGSLRLSCAASGRTFYVYAMGWYIQAPGKERELVAAISWGGGSTYYSDSVKGRFTISRDNAKNTVYLQMNSLKPEDTAVYFCAADKTRYRLGRDYWGQGTQVTVSS,low polyreactivity
6,QVQLVESGGGLVQAGGSLRLSCAASGRTFYVYAMGWYRQAPGKERELVAAISKSGGSTYYADSVKGRFTISRDNAKNTVYLQMNSLKPEDTAVYYCAARKSDPRTKLYNYWGQGTQVTVSS,high polyreactivity
7,QVQLVESGGGLVQAGGSLRLSCAASGRTFYVYTMGWYRQAPGKERELVAAITSGGSTNYADSVKGRFTISRDNAKNTVYLQMNSLKPEDTAVYYCAARVSTVFKRYYYWGQGTQVTVSS,high polyreactivity
8,QVQLVESGGGLVQAGGSLRLSCAASGRTFYWNPMGWYRQAPGKERELVAAITRNGGSTYYADSVKGRFTISRDNAKNTVYLQMNSLKPEDTAVYYCAARKRYGAGYDYWGQGTQVTVSS,high polyreactivity
9,QVQLVESGGGLVQAGGSLRLSCAASGRTFYWYTMGWYRQAPGKERELVAGIRSGGYTNYADSVKGRFTISRDNAKNTVYLQMNSLKPEDTAVYYCAAGGYSSAYGVSYGSYYYWGQGTQVTVSS,low polyreactivity
10,QVQLVESGGGLVQAGGSLRLSCAASGRTFYYAMGWYRQAPGKERELVASITWSGGITTYADSVKGRFTISRDNAKNTVYLQLNSLKPEDTAVYYCAAQVIKGRTYQLGDYWGQGTQVTVSS,high polyreactivity
11,QVQLVESGGGLVQAGGSLRLSCAASGRTFYYAMGWYRQAPGKERELVASITWSGGITTYADSVKGRFTISRDNAKNTVYLQMNSLKPEDTAVYSCAAQVIKGRTYQLGDYWGQGTQVTVSS,high polyreactivity
12,QVQLVESGGGLVQAGGSLRLSCAASGRTFYYNAMGSYRQAPGKEREFVAAITWSGTRTYYADSVKGRFTISRDNAKNTVYLQMNSLKPEDTAVYYCAARRGVQGTQYYYWGQGTQVTVSS,high polyreactivity
13,QVQLVESGGGLVQAGGSLRLSCAASGRTFYYNAMGWDRQAPGKESELVARITYRSGRTNYADSVKGRFTISRDNAKNTVYLQMNSLKPEDTAVYYCAAAWWCGAGRTRYEYWGQGTQVTVSS,high polyreactivity
14,QVQLVESGGGLVQAGGSLRLSCAASGRTFYYNAMGWYRQAPGKERELVAAISSGDTTKYADSVKGRFTISRDNAKNTVYLQMNSLKPEDTAVYYCAAVYQSYTYYLPKYWSFYQNDYWGLGTQVTVSS,low polyreactivity
15,QVQLVESGGGLVQAGGSLRLSCAASGRTFYYNGMGWYRQAPGKERELVAAITSGGTTSYADSVKGRFTISRDNAKNTVYLQMNSLKPEDTAVYYCAKRTVPRYEYWGQGTQVTVSS,low polyreactivity
16,QVQLVESGGGLVQAGGSLRLSCAASGRTFYYNTMGWYSQAPGKERELVATISRIGGSTYYADSVKGRFTISRDNAKNTVYLQMNSLKPEDTAVYYCAAYVAAYPTGYDYWGQGTQVTVSS,high polyreactivity
17,QVQLVESGGGLVQAGGSLRLSCAASGRTFYYNVMGWYRQAPGKESELVAAITNSGSTNYADSVKGRFTISRDNAKNTVYLQMNSLKPEDTAVYYCAARITYYGRKRGSRDYWGQGTQVTVSS,high polyreactivity
18,QVQLVESGGGLVQAGGSLRLSCAASGRTFYYYAMGWSRQAPGKERELVAAINRGGSTNYADSVKGRFTISRDNAKNTVYLQMNSQKPEATAVYDCNAAYYGPVRSKYVYWGQGTQVTVSS,high polyreactivity
19,QVQLVESGGGLVQAGGSLRLSCAASGRTFYYYAMGWYRPAPGKERELVAAISWSGGRTYYADSVKGRFTISRDNAKNTVYLQMNSLKPEDTAVYYCNAEPPRGYTVSSGGEMDYWGQGTQVTVSS,low polyreactivity
20,QVQLVESGGGLVQAGGSLRLSCAASGRTFYYYAMGWYRQAPGKEREFVAAISWSGVRTSYADSVKGRFTISRDNAKNTVNLQMNSLKPEDTAVYYCATKPNPQSRPRYDHWGQGTQVTVSS,high polyreactivity
21,QVQLVESGGGLVQAGGSLRLSCAASGRTFYYYAMGWYRQAPGKEREFVASITWRGGRTYYADSVKGRFTISRDNAKNTVYLQMNSLKPEDTAVYYCAADGSYAIGGYGYWGQGTQVTVSS,high polyreactivity
22,QVQLVESGGGLVQAGGSLRLSCAASGRTFYYYAMGWYRQAPGKEREFVASITWRGGRTYYADSVKGRFTISRDNAKNTVYLQMNSLKPEDTAVYYCAAESYHPEYYYWGQGTQVTVSS,high polyreactivity

row,Sequence,polyreactivity (PSR sort gate)
1,QVQLVESGGGLVQAGGSLRLSCAASGRTFYYYAMGWYRQAPGKERELVAAINTRGTSTYYADSVKGRFTISRDNAKNTVYLQMNSLKPEDTAVYYCAVDPYGDSWEDWFRNYYYGYDYWGQGTQVTVSS,low polyreactivity
2,QVQLVESGGGLVQAGGSLRLSCAASGRTFYYYTMGWYRQAPGKERELVAAITWNGGSTYYADSVKGRFTISRDNAKNTVYLQMNSLKPEDTAVYYCNARWTWRYDYWGQGTQVTVSS,high polyreactivity
3,QVQLVESGGGLVQAGGSLRLSCAASGRTGVNAIGWYRQAPGKERELVAAINNGDSTYYADSVKGRFTISRDNAKNTVYLQMNSLKPEDTAVYYCAAGLDEGDYWQESDYWGQGTQVTVSS,low polyreactivity
4,QVQLVESGGGLVQAGGSLRLSCAASGRTIDPNAMGWYRQAPGKERELVAAISRTGVRTYYADSVMGRFTISRDNAKNTVYLQMNSLKPEDTAVYYCNRYGARSNDYWGQGTQVPVSS,low polyreactivity
5,QVQLVESGGGLVQAGGSLRLSCAASGRTIDSYAMGWYRQAPGKERELVAAISKSGGRTYYADSVKGRFTISRDNAKNTVYLQMNSLKPEDTAVYYCNAQRVAYWRVAYDYWGQGTQVTVSS,high polyreactivity
6,QVQLVESGGGLVQAGGSLRLSCAASGRTIGGYAMGWYRQAPGKERELVATITRGGRTYYADSVKGRFTISRDNAKNTVYLQMNSLKPEDTAVYYCAARYGQSRSVYNLYRFDYWGQGTQVTVSS,high polyreactivity
7,QVQLVESGGGLVQAGGSLRLSCAASGRTIGQNAMGWYRQAPGKERELVAAISASGSNTYYADSVKGRFTISRDNAKNTVYLQMNSLKPEDTAVYYCAKQVYRPGQQSRYDYWGQGTQVTVSS,low polyreactivity
8,QVQLVESGGGLVQAGGSLRLSCAASGRTIGVYAMGWYRQAPGKERELVAAISWSGGTTYYADSVKGRFTISRDNAKYTVYLQMNSLKPEDTAVYYCAADSYTEVDYWGQGTQVTVSS,low polyreactivity
9,QVQLVESGGGLVQAGGSLRLSCAASGRTIIYNTMGWYRQAPGKEREFVAAINWSGGSTYYADSAKGRFTISRDNAKNTVYLQMNSLKPEDTAVYYCNAEAGYYRALIYDYWGQGTQVTVSS,low polyreactivity
10,QVQLVESGGGLVQAGGSLRLSCAASGRTIKYYAMGWYRQAPGKERQLVAVISWSGGRTYYADSVKGRFTISRDNAKNTVYLQMNSLKPEDTAVYYCNAVYPYYYLLKRYKEGYWGLGTQVTVSS,high polyreactivity
11,QVQLVESGGGLVQAGGSLRLSCAASGRTIPTYVMGWYRQAPGKERELVASIRSGGRTKYADSVKGRFTISRDNAKNTVYLQMNSLKPEDTAVYYCAADRRAYYYSFDYWGQGTQVTVSS,low polyreactivity
12,QVQLVESGGGLVQAGGSLRLSCAASGRTIPWNVMGWYRQAPGKERELVATITSRRTSTNYADSVKGRFTISRDNAKNTVYLQMNSLKPEDTAVYYCARRTVWGAGHYYYWGQGTQVTVSS,high polyreactivity
13,QVQLVESGGGLVQAGGSLRLSCAASGRTIPYKSMGWYRQAPGKERELVAAITSGGTTNYADSVKGRFTISRDNAKNTVYLQMNSLKPVDTAVYYCAADSDASSQFRRDYWGQGTQVNVSS,low polyreactivity
14,QVQLVESGGGLVQAGGSLRLSCAASGRTIQTYTMGWYRQAPGKERELDAVITTRGGRTYYADSVKGRFTISRDNAKNTVYLQMNSLKPEDTAVYYCNKGIPTRSVRSYDYWGQGTQVTVSS,high polyreactivity
15,QVQLVESGGGLVQAGGSLRLSCAASGRTIQTYVMGWYRQAPGKERELVASIRSGGRTKYADSVKGRFTISRDNAKNTVYLQMNSLKPEDTAVYYCAADRRAYYYSFDYWGQGTQVTVSS,low polyreactivity
16,QVQLVESGGGLVQAGGSLRLSCAASGRTISVYGMGWYRQAPGKERELVASIPWRGGTTYYADSVKGRFTISRDNAKNTVYLQMNSLKPEDTAVYYCAIEPFRFRYYYWGQGTQVTVSS,high polyreactivity
17,QVQLVESGGGLVQAGGSLRLSCAASGRTISYYAMVWYRPAPGKERELVAAISSSGGSTYYADSVKGRFTISRDNAKNTFYLQMNSLKPEDTAVYYCAAYQRGNRYDYWGQGTQVTVSS,high polyreactivity
18,QVQLVESGGGLVQAGGSLRLSCAASGRTITAYTMVWYRQAPVKEREMVASISSGVTYADSVKGRFTISRDNAKNTVYLQMNRLKPEDTAVYYCAARLWYVQGYVPYVHHRFDYWGQGTQVTVSS,low polyreactivity
19,QVQLVESGGGLVQAGGSLRLSCAASGRTITFNTMGWYRQAPGKERELVAGIDRGGSTNYADSVKGRFTISRDNAKNTVYLQMNSLKPEDTAVYYCAKRWTGLGGYYYWGQGTQVTVSS,high polyreactivity
20,QVQLVESGGGLVQAGGSLRLSCAASGRTITFYTMGWYRQAPVKERELVARITGGGSTFYADSVKGRFTISRDNAKNTVYLLMNSLKPEDTAVYYCAREYASAFWYPMYYWGQGTQVNVSS,low polyreactivity
21,QVQLVESGGGLVQAGGSLRLSCAASGRTIVWYAMGWYRQAPGKERELVAAISKRGGSTYYADSVKGRFTISRDNAKNTVYLQMNSLKPEDTAVYYCAAEVYYGSSYGYWGQGTQVTVSS,high polyreactivity

# Reference: the nanobody polyreactivity screen of Harvey et al. (2022)
